Measurements: patent WO2005095988A2

How the values were obtained:
[1] = target: Bacillus anthracis protective antigen (PA) (Bacillus anthracis) (UniProt P13423)
[2] = target: Bacillus anthracis protective antigen (PA) (Bacillus anthracis) (UniProt P13423); remark: listed apart in the source

Chain of UniProt P13423 (P13423 30-764 limits assumed): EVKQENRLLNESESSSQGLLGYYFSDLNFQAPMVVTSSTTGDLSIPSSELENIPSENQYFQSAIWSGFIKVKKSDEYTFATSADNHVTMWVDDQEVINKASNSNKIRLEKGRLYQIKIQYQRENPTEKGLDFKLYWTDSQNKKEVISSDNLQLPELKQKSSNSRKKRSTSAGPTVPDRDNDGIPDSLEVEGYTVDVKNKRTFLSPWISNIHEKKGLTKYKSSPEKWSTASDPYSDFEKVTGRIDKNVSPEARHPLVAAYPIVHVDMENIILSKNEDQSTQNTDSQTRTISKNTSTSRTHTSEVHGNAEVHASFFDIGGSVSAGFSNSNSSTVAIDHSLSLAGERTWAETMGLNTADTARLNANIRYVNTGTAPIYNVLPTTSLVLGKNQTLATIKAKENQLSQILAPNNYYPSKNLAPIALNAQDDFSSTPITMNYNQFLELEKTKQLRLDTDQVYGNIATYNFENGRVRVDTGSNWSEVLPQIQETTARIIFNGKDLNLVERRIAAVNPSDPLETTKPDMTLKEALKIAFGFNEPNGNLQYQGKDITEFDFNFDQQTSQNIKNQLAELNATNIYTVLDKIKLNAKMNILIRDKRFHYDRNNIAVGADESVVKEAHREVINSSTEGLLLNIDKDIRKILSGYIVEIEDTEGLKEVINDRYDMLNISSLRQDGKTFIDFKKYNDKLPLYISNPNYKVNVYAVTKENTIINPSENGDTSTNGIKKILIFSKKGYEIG

| Substance | mean fluorescence [1] | fold higher mean fluorescence intensity compared to controls [2] [fold] |
| --- | --- | --- |
| NlpA-[M18 scFv], anchored on the E. coli inner membrane (APEx) | 250 |  |
| NlpA-[14B7 scFv], anchored on the E. coli inner membrane (APEx) | 30 | 9 |
